Assay results as given in patent US20180155451A1 (published 2018).

T1: FcγRIIb extracellular domain with C-terminal His tag (human, UniProt P31994 43-217)
T1 construct: extracellular domain; also called FcgRIIb; 2b; not shown: His tag attached to the C terminus
T1 sequence (looked up): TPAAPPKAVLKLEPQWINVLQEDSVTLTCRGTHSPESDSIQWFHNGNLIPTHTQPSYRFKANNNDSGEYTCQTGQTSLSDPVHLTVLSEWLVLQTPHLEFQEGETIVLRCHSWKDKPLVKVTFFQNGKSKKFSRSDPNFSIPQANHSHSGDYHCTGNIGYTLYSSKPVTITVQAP

B1: GpH7-A5/GpH7-B3 variant N325_03V/GpL16-k0 (antibody, human IgG1, kappa)
heavy 1: not shown
heavy 2: not shown
light: DIVMTQSPLSLPVTPGEPASISCQASESLVHSNRNTYLHWYLQKPGQSPQLLIYKVSNRFSGVPDRFSGSGSGTDFTLKISRVEAEDVGVYYCSQNTHVPPTFGQGTKVEIERTVAAPSVFIFPPSDEQLKSGTASVVCLLNNFYPREAKVQWKVDNALQSGNSQESVTEQDSKDSTYSLSSTLTLSKADYEKHKVYACEVTHQGLSSPVTKSFNRGEC
notes: Heterodimerized IgG1; alteration in one H chain only; also called He Ab
B2: GpH7-A5/GpH7-B3 variant N325_15Y/GpL16-k0 (antibody, human IgG1, kappa)
heavy 1: not shown
heavy 2: not shown
light: B1 light
notes: as for B1
B3: GpH7-A5/GpH7-B3 variant N325_11K/GpL16-k0 (antibody, human IgG1, kappa)
heavy 1: not shown
heavy 2: not shown
light: B1 light
notes: as for B1
B4: GpH7-A5/GpH7-B3 variant N325_13S/GpL16-k0 (antibody, human IgG1, kappa)
heavy 1: not shown
heavy 2: not shown
light: B1 light
notes: as for B1
B5: GpH7-A5/GpH7-B3 variant N325_09D/GpL16-k0 (antibody, human IgG1, kappa)
heavy 1: not shown
heavy 2: not shown
light: B1 light
notes: as for B1
B6: GpH7-A5/GpH7-B3 variant N325_04F/GpL16-k0 (antibody, human IgG1, kappa)
heavy 1: not shown
heavy 2: not shown
light: B1 light
notes: as for B1
B7: GpH7-A5/GpH7-B3 variant Y296_13S/GpL16-k0 (antibody, human IgG1, kappa)
heavy 1: not shown
heavy 2: not shown
light: B1 light
notes: as for B1
B8: GpH7-A5/GpH7-B3 variant L328_04F/GpL16-k0 (antibody, human IgG1, kappa)
heavy 1: not shown
heavy 2: not shown
light: B1 light
notes: as for B1
B9: GpH7-A5/GpH7-B3 variant N325_10E/GpL16-k0 (antibody, human IgG1, kappa)
heavy 1: not shown
heavy 2: not shown
light: B1 light
notes: as for B1
B10: GpH7-A5/GpH7-B3 variant P271_14T/GpL16-k0 (antibody, human IgG1, kappa)
heavy 1: not shown
heavy 2: not shown
light: B1 light
notes: as for B1
B11: GpH7-A5/GpH7-B3 variant N325_19Q/GpL16-k0 (antibody, human IgG1, kappa)
heavy 1: not shown
heavy 2: not shown
light: B1 light
notes: as for B1
B12: GpH7-A5/GpH7-B3 variant N325_07I/GpL16-k0 (antibody, human IgG1, kappa)
heavy 1: not shown
heavy 2: not shown
light: B1 light
notes: as for B1
B13: GpH7-A5/GpH7-B3 variant N325_20W/GpL16-k0 (antibody, human IgG1, kappa)
heavy 1: not shown
heavy 2: not shown
light: B1 light
notes: as for B1
B14: GpH7-B3 variant K334_01G/GpL16-k0 (antibody, human IgG1, kappa)
heavy: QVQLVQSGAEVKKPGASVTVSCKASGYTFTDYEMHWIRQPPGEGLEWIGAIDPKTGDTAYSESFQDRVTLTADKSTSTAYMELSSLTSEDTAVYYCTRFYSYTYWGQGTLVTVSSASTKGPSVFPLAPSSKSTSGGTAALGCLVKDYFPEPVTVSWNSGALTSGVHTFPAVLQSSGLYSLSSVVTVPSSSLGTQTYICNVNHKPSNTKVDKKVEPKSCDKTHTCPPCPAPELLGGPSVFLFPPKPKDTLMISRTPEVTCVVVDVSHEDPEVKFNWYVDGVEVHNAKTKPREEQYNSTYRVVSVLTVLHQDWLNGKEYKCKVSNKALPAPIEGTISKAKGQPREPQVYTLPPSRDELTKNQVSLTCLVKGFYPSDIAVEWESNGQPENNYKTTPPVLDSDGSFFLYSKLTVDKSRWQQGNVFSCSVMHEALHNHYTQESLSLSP
light: B1 light
notes: homodimerized antibody, mutation in both H chains; also called K334_01G Ho Ab
B15: GpH7-B3 variant I336_15Y/GpL16-k0 (antibody, human IgG1, kappa)
heavy: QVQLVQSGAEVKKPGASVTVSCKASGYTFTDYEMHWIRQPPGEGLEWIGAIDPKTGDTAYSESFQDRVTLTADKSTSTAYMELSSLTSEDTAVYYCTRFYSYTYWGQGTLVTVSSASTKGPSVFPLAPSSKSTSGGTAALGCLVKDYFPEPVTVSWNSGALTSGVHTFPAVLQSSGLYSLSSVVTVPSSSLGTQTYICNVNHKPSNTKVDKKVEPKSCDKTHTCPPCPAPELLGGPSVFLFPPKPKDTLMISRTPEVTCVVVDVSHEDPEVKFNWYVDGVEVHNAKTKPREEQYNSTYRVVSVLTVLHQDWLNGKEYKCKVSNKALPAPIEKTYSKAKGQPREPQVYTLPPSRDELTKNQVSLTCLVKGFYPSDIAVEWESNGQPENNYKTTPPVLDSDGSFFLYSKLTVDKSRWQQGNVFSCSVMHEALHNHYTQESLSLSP
light: B1 light
notes: homodimerized antibody, mutation in both H chains; also called I336_15Y Ho Ab
B16: GpH7-B3 variant I336_16H/GpL16-k0 (antibody, human IgG1, kappa)
heavy: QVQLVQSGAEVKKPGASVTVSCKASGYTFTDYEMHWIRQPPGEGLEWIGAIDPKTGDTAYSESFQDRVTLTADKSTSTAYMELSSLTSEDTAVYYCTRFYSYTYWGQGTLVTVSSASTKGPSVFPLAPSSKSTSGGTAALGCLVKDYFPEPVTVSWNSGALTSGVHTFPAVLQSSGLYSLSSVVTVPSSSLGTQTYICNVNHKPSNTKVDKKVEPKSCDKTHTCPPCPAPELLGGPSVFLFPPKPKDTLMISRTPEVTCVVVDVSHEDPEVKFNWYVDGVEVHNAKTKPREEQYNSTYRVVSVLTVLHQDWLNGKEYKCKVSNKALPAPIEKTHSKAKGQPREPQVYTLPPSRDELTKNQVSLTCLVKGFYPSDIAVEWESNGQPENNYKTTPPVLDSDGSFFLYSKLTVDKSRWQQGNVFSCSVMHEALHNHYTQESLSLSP
light: B1 light
notes: homodimerized antibody, mutation in both H chains; also called I336_16H Ho Ab

Each binder was assayed against T1, FcγRIIb extracellular domain with … (assay: SPR (Biacore), relative binding).
Description: (§1) Analysis of interaction between objective antibody and the FcγR was carried out using Biacore T100 (GE Healthcare). HBS-EP+ (GE Healthcare) was used as the running buffer, and the measurement temperature was set to 25° C. Chips produced by immobilizing the antigen peptide by the amine coupling method to a Series S Sencor Chip CM5 (GE Healthcare), or alternatively, chips produced by allowing preliminarily biotinylated antigen peptides to interact with and immobilize onto a Series S Sensor Chip SA (certified) (GE Healthcare) were used. Antibodies of interest were captured onto an antigen peptide-immobilized chip, and allowed to interact to each FcγR diluted with running buffer. To regenerate and repeatedly use the chip, the antibodies captured on the chip were washed off by reacting 10 mM glycine-HCl, pH 1.5.
(§2) The FcγR-binding activity of each antibody was assessed primarily using as an indicator the FcγR-binding activity and dissociation constant for FcγR.
For B1, the “He/Con_2b (IIb binding)” value was 111 % of GpH7-A5/GpH7-B3/GpL16-k0 (=100).
B2 was tested, and the “He/Con_2b (IIb binding)” value was 99.5 % of GpH7-A5/GpH7-B3/GpL16-k0 (=100).
B3 was tested, and the “He/Con_2b (IIb binding)” value was 10.4 % of GpH7-A5/GpH7-B3/GpL16-k0 (=100).
For B4, the “He/Con_2b (IIb binding)” value was 177 % of GpH7-A5/GpH7-B3/GpL16-k0 (=100).
B5 was tested, and the “He/Con_2b (IIb binding)” value was 124 % of GpH7-A5/GpH7-B3/GpL16-k0 (=100).
B6 was tested, and the “He/Con_2b (IIb binding)” value was 143 % of GpH7-A5/GpH7-B3/GpL16-k0 (=100).
With B7 the “He/Con_2b (IIb binding)” value was 86.3 % of GpH7-A5/GpH7-B3/GpL16-k0 (=100).
With B8 the “He/Con_2b (IIb binding)” value was 219 % of GpH7-A5/GpH7-B3/GpL16-k0 (=100).
In the case of B9, the “He/Con_2b (IIb binding)” value is reported as 95.9 % of GpH7-A5/GpH7-B3/GpL16-k0 (=100).
For B10, the “He/Con_2b (IIb binding)” value was 95.4 % of GpH7-A5/GpH7-B3/GpL16-k0 (=100).
B11 was tested, and the “He/Con_2b (IIb binding)” value was 69.1 % of GpH7-A5/GpH7-B3/GpL16-k0 (=100).
In the case of B12, the “He/Con_2b (IIb binding)” value is reported as 171 % of GpH7-A5/GpH7-B3/GpL16-k0 (=100).
In the case of B13, the “He/Con_2b (IIb binding)” value is reported as 169 % of GpH7-A5/GpH7-B3/GpL16-k0 (=100).

The binders below were run against T2, FcγRIIIa extracellular domain with C-terminal His tag (human, UniProt P08637 17-208) (assay: SPR (Biacore), relative binding).
T2 construct: extracellular domain; also called FcgRIIIa; 3a; not shown: His tag attached to the C terminus
T2 sequence (P08637 17-208): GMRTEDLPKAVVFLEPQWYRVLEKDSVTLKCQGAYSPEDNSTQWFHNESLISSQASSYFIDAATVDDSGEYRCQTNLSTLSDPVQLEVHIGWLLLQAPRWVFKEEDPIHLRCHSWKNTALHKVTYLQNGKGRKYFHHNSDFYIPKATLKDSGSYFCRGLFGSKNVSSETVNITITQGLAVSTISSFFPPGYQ
Description: as §1, §2
In the case of B1, the “He/Con_3a (IIIa binding)” value is reported as 30.3 % of GpH7-A5/GpH7-B3/GpL16-k0 (=100).
In the case of B2, the “He/Con_3a (IIIa binding)” value is reported as 29.5 % of GpH7-A5/GpH7-B3/GpL16-k0 (=100).
B3 was tested, and the “He/Con_3a (IIIa binding)” value was 5.2 % of GpH7-A5/GpH7-B3/GpL16-k0 (=100).
With B4 the “He/Con_3a (IIIa binding)” value was 65.1 % of GpH7-A5/GpH7-B3/GpL16-k0 (=100).
For B5, the “He/Con_3a (IIIa binding)” value was 48 % of GpH7-A5/GpH7-B3/GpL16-k0 (=100).
In the case of B6, the “He/Con_3a (IIIa binding)” value is reported as 20.7 % of GpH7-A5/GpH7-B3/GpL16-k0 (=100).
For B7, the “He/Con_3a (IIIa binding)” value was 61.8 % of GpH7-A5/GpH7-B3/GpL16-k0 (=100).
In the case of B8, the “He/Con_3a (IIIa binding)” value is reported as 79.3 % of GpH7-A5/GpH7-B3/GpL16-k0 (=100).
For B9, the “He/Con_3a (IIIa binding)” value was 38.2 % of GpH7-A5/GpH7-B3/GpL16-k0 (=100).
For B10, the “He/Con_3a (IIIa binding)” value was 56.4 % of GpH7-A5/GpH7-B3/GpL16-k0 (=100).
In the case of B11, the “He/Con_3a (IIIa binding)” value is reported as 31.6 % of GpH7-A5/GpH7-B3/GpL16-k0 (=100).
In the case of B12, the “He/Con_3a (IIIa binding)” value is reported as 28.7 % of GpH7-A5/GpH7-B3/GpL16-k0 (=100).
For B13, the “He/Con_3a (IIIa binding)” value was 32.8 % of GpH7-A5/GpH7-B3/GpL16-k0 (=100).

Each binder was assayed against T3, FcγRIa extracellular domain with C-terminal His tag (human, UniProt P12314 16-292) (assay: SPR (Biacore), relative FcγRIa binding, GpH7-B3/GpL16-k0 (HoCon Ab) = 100).
T3 construct: extracellular domain; soluble analyte in Biacore; also called FcgRI; CD64
T3 sequence (P12314 16-292): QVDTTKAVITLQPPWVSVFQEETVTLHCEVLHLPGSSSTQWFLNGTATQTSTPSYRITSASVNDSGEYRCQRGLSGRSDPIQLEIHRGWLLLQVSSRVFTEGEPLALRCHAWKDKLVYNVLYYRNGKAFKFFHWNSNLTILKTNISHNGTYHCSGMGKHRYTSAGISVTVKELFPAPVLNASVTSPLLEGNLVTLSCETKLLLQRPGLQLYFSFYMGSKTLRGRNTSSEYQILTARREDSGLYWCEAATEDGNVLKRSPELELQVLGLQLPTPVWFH
In the case of B14, the Ho/Con_1a is reported as 106 % of control.
In the case of B15, the Ho/Con_1a is reported as 110 % of control.
B16 was tested, and the Ho/Con_1a was 114 % of control.

Each binder was assayed against T2, FcγRIIIa extracellular domain with … (assay: SPR (Biacore); He/Con_3a divided by He/Con_2b (reference: binding to FcγRIIb)).
Description: as §1, §2
B1 was tested, and the “He_3a/2b (IIIa/IIb)” value was 0.27 ratio.
B2 was tested, and the “He_3a/2b (IIIa/IIb)” value was 0.3 ratio.
B3 was tested, and the “He_3a/2b (IIIa/IIb)” value was 0.5 ratio.
With B4 the “He_3a/2b (IIIa/IIb)” value was 0.37 ratio.
In the case of B5, the “He_3a/2b (IIIa/IIb)” value is reported as 0.39 ratio.
In the case of B6, the “He_3a/2b (IIIa/IIb)” value is reported as 0.14 ratio.
In the case of B7, the “He_3a/2b (IIIa/IIb)” value is reported as 0.72 ratio.
With B8 the “He_3a/2b (IIIa/IIb)” value was 0.36 ratio.
In the case of B9, the “He_3a/2b (IIIa/IIb)” value is reported as 0.4 ratio.
For B10, the “He_3a/2b (IIIa/IIb)” value was 0.59 ratio.
In the case of B11, the “He_3a/2b (IIIa/IIb)” value is reported as 0.46 ratio.
For B12, the “He_3a/2b (IIIa/IIb)” value was 0.17 ratio.
In the case of B13, the “He_3a/2b (IIIa/IIb)” value is reported as 0.19 ratio.
